For assay [1], the target named is HAdV7病毒原液 (human/CHN/GZ6965/2001). The assay is described as follows: cell-based or functional assay.
The target of another assay is 合成的口蹄疫病毒多肽抗原. The assay is described as follows: ELISA, antigen coated on plate, anti-human IgG-HRP detection. (An ELISA detects its analyte on a solid surface through an enzyme-linked reagent.)

B1: 10G12抗体 (antibody, V domains shown)
VH: QVQLKQPGAELVRPGASVKLSCKASGYSFTNYWMHWMKQRPGQGLEWIGMIDPSDSETRLNQKFKDKATLTVDKSSSIAYMQLSSPTSEDSAVYYCARDRYDGGAWFDYWSQGTLVT
VL: DIVMTQTPLSLPVSLGDQASISCRSSQSLVHSNGNTYLHWYLQKPGQSPKLLIYKVSNRFSGVPDRFSVSGSGTDFTLKISRVEAEDLGVYFCSQSTHVPPTFGGGTKLEIK
notes: also called 单克隆抗体10G12
Consider B1, for which the “抗体对腺病毒感染的抑制率 (EC50, CPE on A549 cells)” value in assay [1] came out at 0.2 µg/mL. Moreover, the binding result with 合成的口蹄疫病毒多肽抗原 is given as “no binding (tested: 300μg/ml)”.
